Experiments:
Kir2.1 = biological target: T1, Kir2.1 (Homo sapiens, UniProt P63252); assay: Ion channel panel (IonWorks Barracuda): Kir2.1; format: cell-based; settings: 100% = no change, <100% = inhibition
T1 construct: host or cells: HEK293 or CHO
Method in brief: (§1)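 Peptides were tested in duplicate at final 20 μM and 200 nM, with concentration set by amino acid analysis, in HEPES-buffered saline. They were applied for at least 5 min to HEK293 or CHO cells transfected with each channel. Currents were expressed as % inhibition, 1-(Ipeptide/Icontrol)×100, or % activation, Ipeptide/Icontrol×100, against a channel-matched reference compound.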

TRPV1 = biological target: T2, TRPV1 (Homo sapiens, UniProt Q8NER1); assay: Ion channel panel (IonWorks Barracuda): TRPV1; format: cell-based; settings: 100% = no change, <100% = inhibition
T2 construct: host or cells: HEK293 or CHO
T2 sequence (Q8NER1 whole entry): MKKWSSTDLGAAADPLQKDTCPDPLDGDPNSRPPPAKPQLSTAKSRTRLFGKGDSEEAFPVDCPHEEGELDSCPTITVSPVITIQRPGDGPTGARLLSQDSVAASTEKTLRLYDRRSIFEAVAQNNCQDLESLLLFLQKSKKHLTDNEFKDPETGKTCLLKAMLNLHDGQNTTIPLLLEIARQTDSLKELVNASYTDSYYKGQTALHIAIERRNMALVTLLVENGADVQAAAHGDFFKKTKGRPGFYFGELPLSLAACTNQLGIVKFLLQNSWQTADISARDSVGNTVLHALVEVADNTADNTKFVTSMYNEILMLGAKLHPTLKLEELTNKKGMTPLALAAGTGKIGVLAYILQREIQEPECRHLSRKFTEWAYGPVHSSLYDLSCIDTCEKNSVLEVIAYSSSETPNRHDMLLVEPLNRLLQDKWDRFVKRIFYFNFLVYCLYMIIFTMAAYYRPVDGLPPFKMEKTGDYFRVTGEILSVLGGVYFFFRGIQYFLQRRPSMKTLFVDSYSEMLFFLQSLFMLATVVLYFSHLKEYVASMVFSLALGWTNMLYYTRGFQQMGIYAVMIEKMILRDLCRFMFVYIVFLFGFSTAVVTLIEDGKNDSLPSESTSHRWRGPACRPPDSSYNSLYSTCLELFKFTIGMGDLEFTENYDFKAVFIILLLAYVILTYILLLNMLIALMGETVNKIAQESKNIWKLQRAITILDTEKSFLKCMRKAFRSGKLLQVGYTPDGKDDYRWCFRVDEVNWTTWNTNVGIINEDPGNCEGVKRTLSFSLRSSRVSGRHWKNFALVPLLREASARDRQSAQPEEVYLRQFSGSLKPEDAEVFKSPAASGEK
Method in brief: as §1

5HT3a = biological target: T3, 5HT3a (Homo sapiens, UniProt P46098); assay: Ion channel panel (IonWorks Barracuda): 5HT3a; format: cell-based
T3 construct: host or cells: HEK293 or CHO
T3 sequence (P46098 whole entry, looked up): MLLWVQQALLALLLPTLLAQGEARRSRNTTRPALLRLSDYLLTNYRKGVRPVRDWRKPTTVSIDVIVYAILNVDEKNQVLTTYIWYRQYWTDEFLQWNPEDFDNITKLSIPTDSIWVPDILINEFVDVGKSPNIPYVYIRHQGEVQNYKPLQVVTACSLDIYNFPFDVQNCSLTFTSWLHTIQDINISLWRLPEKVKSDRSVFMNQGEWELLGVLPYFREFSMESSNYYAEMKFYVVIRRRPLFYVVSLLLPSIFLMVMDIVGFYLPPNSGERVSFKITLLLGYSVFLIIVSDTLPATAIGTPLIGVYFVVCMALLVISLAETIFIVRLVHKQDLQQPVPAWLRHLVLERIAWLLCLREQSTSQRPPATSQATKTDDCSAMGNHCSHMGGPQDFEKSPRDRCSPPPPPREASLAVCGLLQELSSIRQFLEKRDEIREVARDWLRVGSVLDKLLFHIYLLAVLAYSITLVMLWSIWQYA
Method in brief: as §1

TRPA1 = biological target: T4, TRPA1 (Homo sapiens, UniProt O75762); assay: Ion channel panel (IonWorks Barracuda): TRPA1; format: cell-based; settings: 100% = no change, <100% = inhibition
T4 construct: host or cells: HEK293 or CHO
Method in brief: as §1

Cav2.2 = biological target: T5, Cav2.2 (Homo sapiens, UniProt Q00975); assay: cell-based; settings: 100% = no change, <100% = inhibition
T5 construct: host or cells: HEK293 or CHO
Method in brief: as §1

Kv2.1 = biological target: T6, Kv2.1 (Homo sapiens, UniProt Q14721); assay: cell-based; settings: 100% = no change, <100% = inhibition
T6 construct: host or cells: HEK293 or CHO
Method in brief: as §1

Cav2.1 = biological target: T7, Cav2.1 (Homo sapiens, UniProt O00555); assay: cell-based; settings: 100% = no change, <100% = inhibition
T7 construct: host or cells: HEK293 or CHO
Method in brief: as §1

Kv1.2 = biological target: T8, Kv1.2 (Homo sapiens, UniProt P16389); assay: cell-based; format: cell-based; settings: 100% = no change, <100% = inhibition
T8 construct: host or cells: HEK293 or CHO
Method in brief: as §1

Kv1.3 = biological target: T9, Kv1.3 (Homo sapiens, UniProt P22001); assay: cell-based; format: cell-based; settings: 100% = no change, <100% = inhibition
T9 construct: host or cells: HEK293 or CHO
Method in brief: as §1

Kv1.1 = biological target: T10, Kv1.1 (Homo sapiens, UniProt Q09470); assay: cell-based; format: cell-based; settings: 100% = no change, <100% = inhibition
T10 construct: host or cells: HEK293 or CHO
Method in brief: as §1

NR2A = biological target: T11, NR2A (Homo sapiens, UniProt Q12879); assay: Ion channel panel (IonWorks Barracuda): NR2A; format: cell-based; settings: 100% = no change, <100% = inhibition
T11 construct: host or cells: HEK293 or CHO
Method in brief: as §1

hERG = hERG (Homo sapiens, UniProt Q12809); assay: in vitro; settings: 100% = no change, <100% = inhibition
Method in brief: as §1

Nav1.5 = Nav1.5 (Homo sapiens, UniProt Q14524); assay: in vitro; settings: 100% = no change; for Activity of Nav1.5 with peptide, expressed as a percentage of the reference compound: peptide at 0.2 μM; for Activity of Nav1.5 with peptide (percentage of the reference compound): peptide at 20 μM
Nav1.5, sequence (Q14524 whole entry): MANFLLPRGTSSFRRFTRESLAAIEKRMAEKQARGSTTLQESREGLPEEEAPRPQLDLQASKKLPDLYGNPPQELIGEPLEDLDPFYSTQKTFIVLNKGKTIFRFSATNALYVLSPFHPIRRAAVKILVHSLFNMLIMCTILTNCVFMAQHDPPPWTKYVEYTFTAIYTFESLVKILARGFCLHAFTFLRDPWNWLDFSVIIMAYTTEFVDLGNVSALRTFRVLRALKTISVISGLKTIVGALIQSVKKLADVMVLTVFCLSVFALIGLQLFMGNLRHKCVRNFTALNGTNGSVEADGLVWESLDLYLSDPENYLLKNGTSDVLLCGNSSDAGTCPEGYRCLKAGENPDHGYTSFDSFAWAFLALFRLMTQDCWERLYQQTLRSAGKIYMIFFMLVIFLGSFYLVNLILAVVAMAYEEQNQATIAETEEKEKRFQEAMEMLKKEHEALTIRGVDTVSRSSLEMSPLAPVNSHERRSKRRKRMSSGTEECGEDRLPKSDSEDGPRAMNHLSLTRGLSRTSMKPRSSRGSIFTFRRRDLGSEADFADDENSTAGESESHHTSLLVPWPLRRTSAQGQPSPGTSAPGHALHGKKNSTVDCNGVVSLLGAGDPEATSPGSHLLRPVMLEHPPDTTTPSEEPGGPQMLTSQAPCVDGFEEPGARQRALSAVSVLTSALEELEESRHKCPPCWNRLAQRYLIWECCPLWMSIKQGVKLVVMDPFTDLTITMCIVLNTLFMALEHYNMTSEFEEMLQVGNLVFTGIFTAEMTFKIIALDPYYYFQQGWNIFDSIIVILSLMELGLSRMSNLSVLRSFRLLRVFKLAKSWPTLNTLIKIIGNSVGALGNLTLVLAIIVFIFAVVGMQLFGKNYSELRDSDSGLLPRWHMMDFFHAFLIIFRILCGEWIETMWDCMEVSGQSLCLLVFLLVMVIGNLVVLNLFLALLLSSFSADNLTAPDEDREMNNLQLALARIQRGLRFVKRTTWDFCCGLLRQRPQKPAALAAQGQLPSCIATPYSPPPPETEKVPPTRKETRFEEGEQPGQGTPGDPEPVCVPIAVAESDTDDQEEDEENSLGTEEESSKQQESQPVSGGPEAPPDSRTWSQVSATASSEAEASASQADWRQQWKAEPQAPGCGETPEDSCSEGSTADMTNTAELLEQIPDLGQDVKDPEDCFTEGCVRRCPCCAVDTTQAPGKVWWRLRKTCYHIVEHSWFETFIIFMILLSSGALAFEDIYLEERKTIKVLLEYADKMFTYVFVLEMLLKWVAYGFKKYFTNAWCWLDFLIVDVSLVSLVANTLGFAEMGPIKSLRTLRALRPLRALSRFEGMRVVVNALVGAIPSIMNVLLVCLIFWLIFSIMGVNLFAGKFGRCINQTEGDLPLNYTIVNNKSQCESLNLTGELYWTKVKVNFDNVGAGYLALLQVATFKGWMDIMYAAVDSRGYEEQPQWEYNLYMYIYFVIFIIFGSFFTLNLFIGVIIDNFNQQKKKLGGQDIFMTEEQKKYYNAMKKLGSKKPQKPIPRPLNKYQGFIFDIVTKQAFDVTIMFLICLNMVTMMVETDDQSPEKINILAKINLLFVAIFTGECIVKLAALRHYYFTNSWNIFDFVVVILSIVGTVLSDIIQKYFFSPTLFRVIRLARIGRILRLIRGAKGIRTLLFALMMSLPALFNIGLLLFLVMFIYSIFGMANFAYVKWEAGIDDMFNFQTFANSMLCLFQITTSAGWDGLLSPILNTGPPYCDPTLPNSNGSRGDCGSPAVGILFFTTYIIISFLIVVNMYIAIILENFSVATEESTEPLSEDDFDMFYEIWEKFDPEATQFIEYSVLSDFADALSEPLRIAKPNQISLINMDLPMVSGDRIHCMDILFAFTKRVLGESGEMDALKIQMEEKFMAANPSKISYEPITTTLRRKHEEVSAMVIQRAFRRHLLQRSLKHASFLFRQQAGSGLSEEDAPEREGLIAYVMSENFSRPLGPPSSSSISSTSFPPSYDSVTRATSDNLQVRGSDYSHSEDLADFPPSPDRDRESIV
Method in brief: as §1

α3β4 = biological target: T12, α3β4 (Homo sapiens, UniProt P30926+P32297); assay: Ion channel panel (IonWorks Barracuda): α3β4; format: cell-based; settings: 100% = no change, <100% = inhibition
T12 construct: host or cells: HEK293 or CHO
Method in brief: as §1

Nav1.7 = biological target: T13, Nav1.7 (Homo sapiens, UniProt Q15858); assay: cell-based; format: cell-based; settings: 100% = no change; for Activity of Nav1.7 with peptide, expressed as a percentage of the reference compound: peptide at 0.2 μM; for Activity of Nav1.7 with peptide (percentage of the reference compound): peptide at 20 μM
T13 construct: host or cells: HEK293 or CHO
T13 sequence (Q15858 whole entry): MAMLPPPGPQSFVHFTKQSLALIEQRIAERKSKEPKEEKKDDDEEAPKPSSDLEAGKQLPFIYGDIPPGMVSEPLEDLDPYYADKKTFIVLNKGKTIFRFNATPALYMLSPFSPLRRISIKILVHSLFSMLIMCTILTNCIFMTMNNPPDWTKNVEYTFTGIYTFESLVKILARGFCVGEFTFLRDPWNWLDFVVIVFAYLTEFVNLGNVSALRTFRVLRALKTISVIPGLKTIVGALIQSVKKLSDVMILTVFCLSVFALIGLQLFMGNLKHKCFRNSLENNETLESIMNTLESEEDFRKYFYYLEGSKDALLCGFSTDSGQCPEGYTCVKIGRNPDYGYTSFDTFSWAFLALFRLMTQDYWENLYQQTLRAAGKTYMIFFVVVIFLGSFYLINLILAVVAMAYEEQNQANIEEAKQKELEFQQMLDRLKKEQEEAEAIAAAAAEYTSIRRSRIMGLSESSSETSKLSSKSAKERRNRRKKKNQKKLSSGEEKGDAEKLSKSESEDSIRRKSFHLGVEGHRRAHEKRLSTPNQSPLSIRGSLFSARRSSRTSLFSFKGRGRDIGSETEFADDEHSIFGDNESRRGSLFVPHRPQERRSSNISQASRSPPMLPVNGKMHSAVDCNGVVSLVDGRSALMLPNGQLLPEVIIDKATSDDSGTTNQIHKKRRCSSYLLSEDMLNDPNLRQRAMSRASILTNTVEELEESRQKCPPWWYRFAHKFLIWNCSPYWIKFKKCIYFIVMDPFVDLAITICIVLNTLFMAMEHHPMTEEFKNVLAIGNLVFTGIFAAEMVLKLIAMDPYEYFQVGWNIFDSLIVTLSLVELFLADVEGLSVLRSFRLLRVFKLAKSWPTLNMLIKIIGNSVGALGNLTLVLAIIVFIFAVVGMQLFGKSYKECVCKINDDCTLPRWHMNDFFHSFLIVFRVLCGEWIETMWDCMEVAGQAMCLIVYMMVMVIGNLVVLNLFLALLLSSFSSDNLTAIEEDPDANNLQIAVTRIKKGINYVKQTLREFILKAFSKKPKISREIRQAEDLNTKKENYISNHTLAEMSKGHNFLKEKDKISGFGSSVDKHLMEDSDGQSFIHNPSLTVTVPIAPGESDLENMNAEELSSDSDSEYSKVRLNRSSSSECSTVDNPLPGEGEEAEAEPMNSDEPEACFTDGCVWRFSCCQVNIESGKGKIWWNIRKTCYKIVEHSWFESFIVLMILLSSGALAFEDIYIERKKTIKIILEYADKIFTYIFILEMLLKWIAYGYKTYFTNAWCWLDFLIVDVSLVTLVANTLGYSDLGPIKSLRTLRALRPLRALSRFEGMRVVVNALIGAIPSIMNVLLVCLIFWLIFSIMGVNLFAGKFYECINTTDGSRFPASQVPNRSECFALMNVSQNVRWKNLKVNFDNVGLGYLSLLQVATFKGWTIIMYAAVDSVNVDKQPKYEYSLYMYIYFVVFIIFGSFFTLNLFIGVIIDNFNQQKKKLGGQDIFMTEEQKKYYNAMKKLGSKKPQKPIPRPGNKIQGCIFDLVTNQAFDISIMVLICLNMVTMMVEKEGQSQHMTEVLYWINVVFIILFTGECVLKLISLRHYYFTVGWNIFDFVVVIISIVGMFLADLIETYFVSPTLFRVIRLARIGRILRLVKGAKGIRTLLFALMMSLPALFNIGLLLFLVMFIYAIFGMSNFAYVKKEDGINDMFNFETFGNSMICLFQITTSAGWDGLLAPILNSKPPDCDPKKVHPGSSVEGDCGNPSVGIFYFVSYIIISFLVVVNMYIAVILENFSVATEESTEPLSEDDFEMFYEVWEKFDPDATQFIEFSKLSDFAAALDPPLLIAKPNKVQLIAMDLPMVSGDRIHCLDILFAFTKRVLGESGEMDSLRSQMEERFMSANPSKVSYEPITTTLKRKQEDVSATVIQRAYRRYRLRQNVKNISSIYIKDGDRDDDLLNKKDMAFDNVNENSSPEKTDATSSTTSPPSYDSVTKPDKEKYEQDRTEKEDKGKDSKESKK

NR2B = biological target: T14, NR2B (Homo sapiens, UniProt Q13224); assay: Ion channel panel (IonWorks Barracuda): NR2B; format: cell-based; settings: 100% = no change, <100% = inhibition
T14 construct: host or cells: HEK293 or CHO
Method in brief: as §1

GABA = assay: Ion channel panel (IonWorks Barracuda): GABA; format: cell-based; settings: 100% = no change, <100% = inhibition
Method in brief: as §1

α4β2 = biological target: T15, α4β2 (Homo sapiens, UniProt P17787+P43681); assay: Ion channel panel (IonWorks Barracuda): α4β2; format: cell-based; settings: 100% = no change, <100% = inhibition
T15 construct: host or cells: HEK293 or CHO
Method in brief: as §1

[1] = first of two Nav1.5 columns (probably TP1)
[2] = second of two Nav1.5 columns (probably TP2)
[3] = first of two Nav1.7 columns (probably TP1)
[4] = second of two Nav1.7 columns (probably TP2)

22 (GSSDYCSNDFCFFSCRRDRCARGDCENGKCVCKNCHLN) [compound 22]
Activity of Kir2.1 with peptide, expressed as a percentage of the reference compound (Kir2.1; peptide at 0.2 μM): 94% | Activity of Kir2.1 with peptide (percentage of the reference compound) (Kir2.1; peptide at 20 μM): 97% | Activity of TRPV1 with peptide, expressed as a percentage of the reference compound (TRPV1; peptide at 0.2 μM): 102% | Activity of TRPV1 with peptide (percentage of the reference compound) (TRPV1; peptide at 20 μM): 67% | Activity of 5HT3a with peptide (percentage of the reference compound) (5HT3a): 95% | Activity of 5HT3a with peptide, expressed as a percentage of the reference compound (5HT3a): 77% | Activity of TRPA1 with peptide, expressed as a percentage of the reference compound (TRPA1; peptide at 0.2 μM): 90% | Activity of TRPA1 with peptide (percentage of the reference compound) (TRPA1; peptide at 20 μM): 128% | Activity of Cav2.2 with peptide, expressed as a percentage of the reference compound (Cav2.2; peptide at 0.2 μM): 130% | Activity of Cav2.2 with peptide (percentage of the reference compound) (Cav2.2; peptide at 20 μM): 86% | Activity of Kv2.1 with peptide, expressed as a percentage of the reference compound (Kv2.1; peptide at 0.2 μM): 110% | Activity of Kv2.1 with peptide (percentage of the reference compound) (Kv2.1; peptide at 20 μM): 93% | Activity of Cav2.1 with peptide, expressed as a percentage of the reference compound (Cav2.1; peptide at 0.2 μM): 98% | Activity of Cav2.1 with peptide (percentage of the reference compound) (Cav2.1; peptide at 20 μM): 99% | Activity of Kv1.2 with peptide, expressed as a percentage of the reference compound (Kv1.2; peptide at 0.2 μM): 82% | Activity of Kv1.2 with peptide (percentage of the reference compound) (Kv1.2; peptide at 20 μM): 34% | Activity of Kv1.3 with peptide, expressed as a percentage of the reference compound (Kv1.3; peptide at 0.2 μM): 100% | Activity of Kv1.3 with peptide (percentage of the reference compound) (Kv1.3; peptide at 20 μM): 51% | Activity of Kv1.1 with peptide, expressed as a percentage of the reference compound (Kv1.1; peptide at 0.2 μM): 83% | Activity of Kv1.1 with peptide (percentage of the reference compound) (Kv1.1; peptide at 20 μM): 97% | Activity of NR2A with peptide, expressed as a percentage of the reference compound (NR2A; peptide at 0.2 μM): 107% | Activity of NR2A with peptide (percentage of the reference compound) (NR2A; peptide at 20 μM): 129% | Activity of hERG with peptide, expressed as a percentage of the reference compound (hERG; peptide at 0.2 μM): 84% | Activity of hERG with peptide (percentage of the reference compound) (hERG; peptide at 20 μM): 79% | Activity of Nav1.5 with peptide, expressed as a percentage of the reference compound (Nav1.5; [1]): 90% | Activity of Nav1.5 with peptide, expressed as a percentage of the reference compound (Nav1.5; [2]): 90% | Activity of Nav1.5 with peptide (percentage of the reference compound) (Nav1.5; [1]): 112% | Activity of Nav1.5 with peptide (percentage of the reference compound) (Nav1.5; [2]): 116% | Activity of a3b4 with peptide, expressed as a percentage of the reference compound (α3β4; peptide at 0.2 μM): 98% | Activity of a3b4 with peptide (percentage of the reference compound) (α3β4; peptide at 20 μM): 92% | Activity of Nav1.7 with peptide, expressed as a percentage of the reference compound (Nav1.7; [3]): 79% | Activity of Nav1.7 with peptide, expressed as a percentage of the reference compound (Nav1.7; [4]): 81% | Activity of Nav1.7 with peptide (percentage of the reference compound) (Nav1.7; [3]): 94% | Activity of Nav1.7 with peptide (percentage of the reference compound) (Nav1.7; [4]): 87% | Activity of NR2B with peptide, expressed as a percentage of the reference compound (NR2B; peptide at 0.2 μM): 94% | Activity of NR2B with peptide (percentage of the reference compound) (NR2B; peptide at 20 μM): 97% | Activity of GABA with peptide, expressed as a percentage of the reference compound (GABA; peptide at 0.2 μM): 99% | Activity of GABA with peptide (percentage of the reference compound) (GABA; peptide at 20 μM): 124% | Activity of a4b2 with peptide, expressed as a percentage of the reference compound (α4β2; peptide at 0.2 μM): 92% | Activity of a4b2 with peptide (percentage of the reference compound) (α4β2; peptide at 20 μM): 83%

— patent US20200262877A1, “ION CHANNEL-BINDING PEPTIDES AND METHODS OF USE THEREOF” (priority 2017, published 2020)
